Values of other authors in paper PMC7692841.

Key:
[1] = target: BRCA1-A complex (Homo sapiens) (UniProt Q6UWZ7)
[2] = target: ATRIP phosphopeptide (Homo sapiens) (UniProt Q8WXE1); assay: ITC
[3] = target: BACH1 phosphopeptide (Homo sapiens) (UniProt Q9BX63); assay: ITC
[4] = target: ABRAXAS phosphopeptide (Homo sapiens) (UniProt Q6UWZ7); assay: ITC
Sequence of ABRAXAS phosphopeptide (Homo sapiens) (Q6UWZ7 whole entry): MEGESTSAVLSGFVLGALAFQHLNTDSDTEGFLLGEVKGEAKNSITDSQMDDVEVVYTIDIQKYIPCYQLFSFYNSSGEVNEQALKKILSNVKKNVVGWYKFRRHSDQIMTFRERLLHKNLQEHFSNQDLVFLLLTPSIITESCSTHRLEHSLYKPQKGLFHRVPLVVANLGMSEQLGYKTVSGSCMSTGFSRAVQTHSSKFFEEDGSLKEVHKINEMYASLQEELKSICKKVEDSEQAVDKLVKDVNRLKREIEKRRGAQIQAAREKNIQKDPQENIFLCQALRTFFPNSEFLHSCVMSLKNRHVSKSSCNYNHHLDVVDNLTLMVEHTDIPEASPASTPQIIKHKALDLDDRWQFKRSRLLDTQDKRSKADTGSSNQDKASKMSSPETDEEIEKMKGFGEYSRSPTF

Sequence of BRCA1 BRCT (P38398 1646-1859): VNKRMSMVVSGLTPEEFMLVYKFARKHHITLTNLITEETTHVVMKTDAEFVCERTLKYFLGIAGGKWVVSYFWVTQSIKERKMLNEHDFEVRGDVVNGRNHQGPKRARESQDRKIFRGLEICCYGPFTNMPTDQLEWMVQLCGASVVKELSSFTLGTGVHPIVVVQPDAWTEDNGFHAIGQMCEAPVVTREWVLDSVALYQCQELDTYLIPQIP
Sequence of ATRIP phosphopeptide (Homo sapiens) (Q8WXE1 whole entry): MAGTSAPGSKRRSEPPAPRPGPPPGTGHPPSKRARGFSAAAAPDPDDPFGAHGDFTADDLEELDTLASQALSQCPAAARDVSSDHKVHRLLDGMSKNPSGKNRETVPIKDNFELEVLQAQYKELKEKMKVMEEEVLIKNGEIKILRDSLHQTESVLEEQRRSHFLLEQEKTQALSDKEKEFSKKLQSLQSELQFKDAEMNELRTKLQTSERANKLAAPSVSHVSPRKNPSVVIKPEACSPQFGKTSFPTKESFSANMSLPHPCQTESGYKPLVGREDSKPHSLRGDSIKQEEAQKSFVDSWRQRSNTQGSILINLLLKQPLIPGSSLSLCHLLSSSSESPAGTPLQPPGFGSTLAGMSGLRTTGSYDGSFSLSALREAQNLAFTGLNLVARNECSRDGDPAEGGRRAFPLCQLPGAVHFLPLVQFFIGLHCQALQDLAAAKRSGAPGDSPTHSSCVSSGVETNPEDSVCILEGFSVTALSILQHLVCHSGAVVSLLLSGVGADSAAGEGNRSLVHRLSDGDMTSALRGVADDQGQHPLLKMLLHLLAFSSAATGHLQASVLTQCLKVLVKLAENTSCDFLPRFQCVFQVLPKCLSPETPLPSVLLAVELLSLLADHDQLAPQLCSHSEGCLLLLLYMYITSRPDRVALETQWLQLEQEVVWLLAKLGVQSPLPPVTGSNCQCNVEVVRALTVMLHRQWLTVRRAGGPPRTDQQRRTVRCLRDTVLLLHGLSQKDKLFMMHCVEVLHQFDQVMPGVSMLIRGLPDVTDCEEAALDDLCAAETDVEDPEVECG
Sequence of BACH1 phosphopeptide (Homo sapiens) (Q9BX63 whole entry): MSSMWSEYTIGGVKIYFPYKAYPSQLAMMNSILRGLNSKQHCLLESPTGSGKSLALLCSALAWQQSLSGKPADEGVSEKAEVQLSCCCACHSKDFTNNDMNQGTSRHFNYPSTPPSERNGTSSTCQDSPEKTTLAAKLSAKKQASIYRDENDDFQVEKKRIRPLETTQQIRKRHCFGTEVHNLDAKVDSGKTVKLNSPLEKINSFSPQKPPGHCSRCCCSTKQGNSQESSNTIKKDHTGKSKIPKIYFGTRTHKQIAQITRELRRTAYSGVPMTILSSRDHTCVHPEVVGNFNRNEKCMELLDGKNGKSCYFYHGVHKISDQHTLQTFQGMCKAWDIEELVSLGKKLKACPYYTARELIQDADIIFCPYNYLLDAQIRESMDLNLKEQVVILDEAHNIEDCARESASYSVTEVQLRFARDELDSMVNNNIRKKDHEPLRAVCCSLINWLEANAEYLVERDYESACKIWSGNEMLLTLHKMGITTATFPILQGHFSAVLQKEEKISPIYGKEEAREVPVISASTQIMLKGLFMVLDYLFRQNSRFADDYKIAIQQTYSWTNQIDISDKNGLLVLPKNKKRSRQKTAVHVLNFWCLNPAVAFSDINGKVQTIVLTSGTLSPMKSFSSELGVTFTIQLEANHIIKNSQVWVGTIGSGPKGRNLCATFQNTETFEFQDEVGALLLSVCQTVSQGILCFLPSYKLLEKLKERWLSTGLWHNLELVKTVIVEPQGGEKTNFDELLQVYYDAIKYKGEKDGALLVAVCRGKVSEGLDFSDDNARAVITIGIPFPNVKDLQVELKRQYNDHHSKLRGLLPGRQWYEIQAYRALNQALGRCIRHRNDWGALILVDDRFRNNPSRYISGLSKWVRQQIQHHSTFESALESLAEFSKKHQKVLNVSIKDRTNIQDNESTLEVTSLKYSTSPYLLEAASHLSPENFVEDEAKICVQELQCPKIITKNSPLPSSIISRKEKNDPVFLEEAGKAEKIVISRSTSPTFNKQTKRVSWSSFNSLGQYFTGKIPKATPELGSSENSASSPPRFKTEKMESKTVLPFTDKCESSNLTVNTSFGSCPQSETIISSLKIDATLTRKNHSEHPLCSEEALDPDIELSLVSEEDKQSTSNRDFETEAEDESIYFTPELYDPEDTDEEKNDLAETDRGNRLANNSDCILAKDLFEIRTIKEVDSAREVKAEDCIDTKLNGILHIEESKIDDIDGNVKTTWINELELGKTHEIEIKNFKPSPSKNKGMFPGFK

Kd [1]: 0.08 µM
Kd [2]: 28.2 µM
Kd [3]: 0.7 µM
Kd [4]: 1.2 µM
Substance: BRCA1 BRCT (from UniProt P38398)
